Tests used:
mouse FAP = molecular target: T1, mouse FAP (mouse, UniProt P97321 26-761, limits assumed); assay: SPR (ProteOn XPR36), mFAP immobilized on GLC chip, Protein #5 as analyte
T1 construct: also called mFAP
T1 sequence (looked up): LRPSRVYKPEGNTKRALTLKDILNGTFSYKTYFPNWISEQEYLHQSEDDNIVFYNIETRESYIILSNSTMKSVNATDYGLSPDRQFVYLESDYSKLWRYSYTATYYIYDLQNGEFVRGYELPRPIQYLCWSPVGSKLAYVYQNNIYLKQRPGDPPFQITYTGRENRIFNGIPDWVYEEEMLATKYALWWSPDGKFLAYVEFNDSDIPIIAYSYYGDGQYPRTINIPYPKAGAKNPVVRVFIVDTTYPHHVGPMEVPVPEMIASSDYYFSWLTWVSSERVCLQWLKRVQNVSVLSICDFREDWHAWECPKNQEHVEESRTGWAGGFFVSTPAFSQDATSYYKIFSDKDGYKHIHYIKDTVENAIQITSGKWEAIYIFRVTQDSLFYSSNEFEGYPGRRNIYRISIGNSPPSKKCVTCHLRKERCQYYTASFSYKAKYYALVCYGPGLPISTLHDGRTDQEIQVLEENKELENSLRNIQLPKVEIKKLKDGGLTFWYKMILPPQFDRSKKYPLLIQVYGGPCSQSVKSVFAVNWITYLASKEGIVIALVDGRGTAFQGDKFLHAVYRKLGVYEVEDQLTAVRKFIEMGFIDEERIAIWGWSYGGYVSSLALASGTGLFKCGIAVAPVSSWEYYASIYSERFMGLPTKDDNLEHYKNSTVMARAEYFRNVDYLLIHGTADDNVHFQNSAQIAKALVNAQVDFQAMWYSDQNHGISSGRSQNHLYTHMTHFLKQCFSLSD
Experimental: (§1) All SPR measurements were performed using a ProteOn XPR36 instrument (BioRad) and a running buffer of PBS pH 7.4 containing 0.005% Tween 20® (PBST). The 1:1 Langmuir model was used for the fitting of SPR traces.
(§2) ProteOn setup for Protein #5 binding to FAP of different species. hFAP, cynomolgus FAP (cFAP) and mouse FAP (mFAP) were immobilized on a GLC chip (BioRad) in 10 mM Na Acetate buffer pH5.3 to a level of 1200 RU, 800 RU and 2000 RU, respectively. The interaction of FAP and Protein #5 was measured by applying Protein #5 in a serial dilution of […] and 3.13 nM with an association of 120 s and dissociation of 1800 s using a constant flow of 100 μl/min. The targets were regenerated using 10 mM glycine pH 2 and 124 mM H₃PO₄. The signals were double referenced against the PBST treated control lanes.

cynomolgus FAP = molecular target: T2, cynomolgus FAP (cynomolgus); assay: SPR (ProteOn XPR36), FAP immobilized on GLC chip, Protein #5 as analyte, PBST, 1:1 Langmuir
T2 chain: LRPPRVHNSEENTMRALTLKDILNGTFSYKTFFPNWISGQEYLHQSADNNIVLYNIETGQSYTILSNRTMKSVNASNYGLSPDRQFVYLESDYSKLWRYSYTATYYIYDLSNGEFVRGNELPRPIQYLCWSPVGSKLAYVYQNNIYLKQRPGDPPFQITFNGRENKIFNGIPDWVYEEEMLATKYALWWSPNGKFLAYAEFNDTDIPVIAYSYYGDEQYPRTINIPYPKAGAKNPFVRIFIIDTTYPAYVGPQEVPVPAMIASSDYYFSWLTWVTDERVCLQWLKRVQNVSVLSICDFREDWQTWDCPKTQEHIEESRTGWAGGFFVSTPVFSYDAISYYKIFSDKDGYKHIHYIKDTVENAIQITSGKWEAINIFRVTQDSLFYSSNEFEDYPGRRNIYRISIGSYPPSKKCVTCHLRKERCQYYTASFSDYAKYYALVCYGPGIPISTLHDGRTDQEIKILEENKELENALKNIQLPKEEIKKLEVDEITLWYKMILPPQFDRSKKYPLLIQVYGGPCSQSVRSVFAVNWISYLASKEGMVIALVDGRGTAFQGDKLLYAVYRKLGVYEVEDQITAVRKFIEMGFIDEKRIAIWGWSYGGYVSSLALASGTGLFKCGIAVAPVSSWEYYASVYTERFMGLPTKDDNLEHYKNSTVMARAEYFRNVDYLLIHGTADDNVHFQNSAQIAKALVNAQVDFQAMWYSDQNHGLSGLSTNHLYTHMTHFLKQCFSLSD
Experimental: as §1, §2

mouse serum albumin = molecular target: T3, mouse serum albumin (mouse, UniProt P07724 25-608); assay: SPR (ProteOn XPR36), Protein #5 captured on hFAP-coated GLC chip, serum albumin as analyte, PBST; flagged as overestimated, inaccurate fit
T3 construct: also called MSA
Experimental: as §1
ProteOn setup for Protein #5 binding to serum albumin of different species. First, human FAP (hFAP) was coated on a GLC chip (BioRad) to a level of 700 RU before 50 nM Protein #5 was immobilized as analyte for 120 s (dissociation of 0 s) at constant flow of 100 μl/min to a level of 120 RU. The binding of the serum albumin to Protein #5 was measured by injecting human serum albumin (HSA), cynomolgus serum albumin (CSA) and mouse serum albumin (MSA) in a serial dilution of 100, 33, 11 and 3.7 nM with an association of 120 s and a dissociation of 600 s at a constant flow of 100 μl/min. HSA, CSA and MSA binding was measured serially and the hFAP/Protein #5 complex was regenerated each time with 10 mM glycine pH2 for 18 s at a flow of 100 μl/min. Thus, Protein #5 had to be re-immobilized on hFAP after each regeneration step. […] The kinetic was calculated on the first 300 s of dissociation.

Kd (cynomolgus FAP): 339 pM | koff (cynomolgus FAP): 0.000146 s⁻¹ | kon (cynomolgus FAP): 432000 M⁻¹ s⁻¹ | koff (mouse serum albumin): 0.0126 s⁻¹ | kon (mouse serum albumin): 315000 M⁻¹ s⁻¹
B1: DARPin Protein #5 (designed binder)
chain: GSDLGKKLLEAARAGQDDEVRELLKAGADVNAKDYFSHTPLHLAARNGHLKIVEVLLKAGADVNAKDFAGKTPLHLAAADGHLEIVEVLLKAGADVNAQDIFGKTPADIAADAGHEDIAEVLQKAAGSPTPTPTTPTPTPTTPTPTPTGSDLGKKLLEAARAGQDDEVRILLAAGADVNAKDVLGWTPLHLAAFEGHLEIVEVLLKAGADVNAKDKKGWTPLQLAARTGHLEIVEVLLKAGADVNAKDHIGATPLHLAAWQGHPEIVEVLLKAGADVNAQDKSGKTPADLAADAGHEDIAEVLQKAAGSPTPTPTTPTPTPTTPTPTPTGSDLGKKLLQAARAGQLDEVRELLKAGADVNAKDTWGFTPLHIAAESGHLEIVEVLLKAGADVNAKDVQGRTPLHIAAHSGHLEIVEVLLKAGADVNAKDFRGWTPLHLAAWSGHLEIVEILLKAGADVNAQDKSGKTPADLAARAGHQDIAEVLQKAAGSPTPTPTTPTPTPTTPTPTPTGSDLGKKLLQAARAGQLDEVRELLKAGADVNAKDTWGFTPLHIAAESGHLEIVEVLLKAGADVNAKDVQGRTPLHIAAHSGHLEIVEVLLKAGADVNAKDFRGWTPLHLAAWSGHLEIVEILLKAGADVNAQDKSGKTPADLAARAGHQDIAEVLQKAA
notes: also called SMA136; Molecule No. 1
binding result (mouse FAP): no binding (tested: 50 nM (highest concentration injected))

Source: patent publication US20210395318A1 (Molecular Partners, published 2021)
